The values below come from paper PMC5497220 (2017).

This assay concerns the target T1, Histone H3 (4-10) K9ac peptide 4-10 (Homo sapiens, UniProt P68431, not fully specified (residue 7)).
T1 chain: TKQTARK
Kind of assay: ITC.

Where no end group is shown, it is not given here.

By Kd is commonly meant the free concentration of one partner at which half of the binding sites on the other are occupied at equilibrium, for simple one-to-one binding. A lower Kd goes with higher affinity.

B1: ENL (protein)
chain: MDNQCTVQVRLELGHRAQLRKKPTTEGFTHDWMVFVRGPEQCDIQHFVEKVVFWLHDSFPKPRRVCKEPPYKVEESGYAGFIMPIEVHFKNKEEPRKVCFTYDLFLNLEGNPPVNHLRCEKLTFNNPTTEFRYKLLRAGGVMVMPEGADTVSRPSPDYPMLPTIPLSAFSDPKKTKPSHGSKDANKESSKTSKPHKVTKEHRERPRKDSESKSSSKELEREQAKSSKDTSRKLGEGRLPKEEKAPPPKAAFKEPKMALKETKLESTSPKGGPPPPPPPPPRASSKRPATADSPKPSAKKQKKSSSKGSRSAPGTSPRTSSSSSFSDKKPAKDKSSTRGEKVKAESEPREAKKALEVEESNSEDEASFKSESAQSSPSNSSSSSDSSSDSDFEPSQNHSQGPLRSMVEDLQSEESDEDDSSSGEEAAGKTNPGRDSRLSFSDSESDNSADSSLPSREPPPPQKPPPPNSKVSGRRSPESCSKPEKILKKGTYDKAYTDELVELHRRLMALRERNVLQQIVNLIEETGHFNVTNTTFDFDLFSLDETTVRKLQSCLEAVAT
With B1, binding was put at a Kd of 30.1 µM.
